Data set [1] concerns the target T1, PFD0985w D1 (ApiAP2) (Plasmodium falciparum) (UniProt Q8I1N6).
T1 sequence: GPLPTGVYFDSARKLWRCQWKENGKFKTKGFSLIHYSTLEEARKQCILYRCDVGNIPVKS
Conditions: PBM; highest protein concentration obtained; buffer not given; scale: PBM E-score of the seed 8-mer.

The target of data set [2] is T2, PFE0840c D2 (PF3D7_0516800, AP2 domain transcription factor AP2-O2, putative) (Plasmodium falciparum) (UniProt Q8I3U0).
T2 sequence: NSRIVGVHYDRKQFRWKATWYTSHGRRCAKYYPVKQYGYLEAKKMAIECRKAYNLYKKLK
Conditions: PBM; highest protein concentration obtained; buffer not given; scale: PBM E-score of the seed 8-mer.

Data set [3] addresses T3, PF10_0075 D2ext (PF3D7_1007700, AP2 domain transcription factor AP2-I) (Plasmodium falciparum) (UniProt Q8IJW6).
T3 sequence: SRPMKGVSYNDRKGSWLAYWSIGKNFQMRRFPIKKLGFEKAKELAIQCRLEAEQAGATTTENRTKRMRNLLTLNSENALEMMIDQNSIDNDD
The note with it: PBM; highest protein concentration obtained; buffer not given; scale: PBM E-score of the seed 8-mer.

In data set [4] the target is T4, PF11_0091 D1 (PF3D7_1107800, AP2 domain transcription factor, putative) (Plasmodium falciparum) (UniProt Q8IIS4).
T4 sequence: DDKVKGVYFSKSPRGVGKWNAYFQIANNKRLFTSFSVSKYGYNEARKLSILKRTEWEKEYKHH
Conditions: PBM; highest protein concentration obtained; buffer not given; scale: PBM E-score of the seed 8-mer.

The target of data set [5] is T5, PF13_0235 D1ext (PF3D7_1342900, AP2 domain transcription factor, putative) (Plasmodium falciparum) (UniProt C0H5G5).
T5 sequence: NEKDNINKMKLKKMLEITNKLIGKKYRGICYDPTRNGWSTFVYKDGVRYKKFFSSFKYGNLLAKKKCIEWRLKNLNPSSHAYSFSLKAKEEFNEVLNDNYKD
Conditions: PBM; highest protein concentration obtained; buffer not given; scale: PBM E-score of the seed 8-mer.

In data set [6] the target is T6, PF11_0404 D1 (PF3D7_1139300, AP2 domain transcription factor, putative) (Plasmodium falciparum) (UniProt Q8IHX2).
T6 sequence: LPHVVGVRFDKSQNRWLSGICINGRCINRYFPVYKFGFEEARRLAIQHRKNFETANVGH
The note with it: PBM; highest protein concentration obtained; buffer not given; scale: PBM E-score of the seed 8-mer.

Data set [7] concerns the target T7, PF14_0079 D1 (PF3D7_1408200, AP2 domain transcription factor AP2-G2, putative) (Plasmodium falciparum) (UniProt Q8IM14).
T7 sequence: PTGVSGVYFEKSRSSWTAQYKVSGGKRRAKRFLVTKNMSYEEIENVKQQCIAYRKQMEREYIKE
The note with it: PBM; highest protein concentration obtained; buffer not given; scale: PBM E-score of the seed 8-mer.

Data set [8] has as its target T8, MAL8P1.153 D1 (PF3D7_0802100, AP2 domain transcription factor, putative) (Plasmodium falciparum) (UniProt Q8IAM1).
T8 sequence: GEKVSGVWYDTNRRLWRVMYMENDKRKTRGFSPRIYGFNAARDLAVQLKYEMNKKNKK
The note with it: PBM; highest protein concentration obtained; buffer not given; scale: PBM E-score of the seed 8-mer.

The target of data set [9] is T9, PFL1900w D1ext (PF3D7_1239200, AP2 domain transcription factor, putative) (Plasmodium falciparum) (UniProt Q8I531).
T9 sequence: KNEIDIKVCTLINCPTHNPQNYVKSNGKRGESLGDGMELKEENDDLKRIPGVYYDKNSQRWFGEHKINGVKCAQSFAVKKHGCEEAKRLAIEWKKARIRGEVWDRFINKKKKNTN
Conditions: PBM; highest protein concentration obtained; buffer not given; scale: PBM E-score of the seed 8-mer.

The target in data set [10] is T10, PF13_0026 D1 (PF3D7_1305200, AP2 domain transcription factor, putative) (Plasmodium falciparum) (UniProt Q8IER4).
T10 sequence: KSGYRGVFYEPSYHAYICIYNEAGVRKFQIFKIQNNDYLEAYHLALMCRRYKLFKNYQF
The note with it: PBM; highest protein concentration obtained; buffer not given; scale: PBM E-score of the seed 8-mer.

Data set [11] concerns the target T11, PF07_0126 DLDext (PF3D7_0730300, AP2 domain transcription factor AP2-L, putative) (Plasmodium falciparum) (UniProt Q8IBF6).
T11 sequence: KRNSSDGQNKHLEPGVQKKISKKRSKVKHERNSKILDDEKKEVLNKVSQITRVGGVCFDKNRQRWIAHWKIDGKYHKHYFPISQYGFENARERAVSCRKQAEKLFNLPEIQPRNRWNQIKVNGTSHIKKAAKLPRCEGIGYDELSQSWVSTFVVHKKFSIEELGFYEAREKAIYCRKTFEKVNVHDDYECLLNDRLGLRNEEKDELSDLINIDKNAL
Conditions: PBM; highest protein concentration obtained; buffer not given; scale: PBM E-score of the seed 8-mer.

Data set [12] concerns the target T12, PFF0200c DLD (PF3D7_0604100, AP2 domain transcription factor) (Plasmodium falciparum) (UniProt C6KSN9).
T12 sequence: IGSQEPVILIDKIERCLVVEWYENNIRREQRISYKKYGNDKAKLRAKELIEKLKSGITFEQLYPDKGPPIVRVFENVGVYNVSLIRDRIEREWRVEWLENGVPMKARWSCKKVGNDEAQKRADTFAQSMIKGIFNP
Conditions: PBM; highest protein concentration obtained; buffer not given; scale: PBM E-score of the seed 8-mer.

Data set [13] concerns the target T13, PF11_0442 D1ext (PF3D7_1143100, AP2 domain transcription factor AP2-O, putative) (Plasmodium falciparum) (UniProt Q8IHT5).
T13 sequence: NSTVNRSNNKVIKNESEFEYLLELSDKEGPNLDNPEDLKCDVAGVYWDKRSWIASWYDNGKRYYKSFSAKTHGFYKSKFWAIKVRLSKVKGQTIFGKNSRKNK
The note with it: PBM; highest protein concentration obtained; buffer not given; scale: PBM E-score of the seed 8-mer.

Data set [14] addresses T14, PFF0670w D1 (PF3D7_0613800, AP2 domain transcription factor, putative) (Plasmodium falciparum) (UniProt C6KSY0).
T14 sequence: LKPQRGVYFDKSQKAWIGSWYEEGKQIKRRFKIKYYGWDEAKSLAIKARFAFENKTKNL
Conditions: PBM; highest protein concentration obtained; buffer not given; scale: PBM E-score of the seed 8-mer.

For data set [15], the target named is T15, PFL1900w DLD (PF3D7_1239200, AP2 domain transcription factor, putative) (Plasmodium falciparum, UniProt Q8I531 2149-2347).
T15 sequence: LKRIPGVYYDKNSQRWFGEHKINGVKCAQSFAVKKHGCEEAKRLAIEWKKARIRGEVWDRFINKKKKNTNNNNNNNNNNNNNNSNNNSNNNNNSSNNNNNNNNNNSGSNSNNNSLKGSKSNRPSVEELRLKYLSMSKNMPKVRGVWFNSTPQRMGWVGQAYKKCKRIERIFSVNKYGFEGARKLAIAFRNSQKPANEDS
The data set can be described thus: EMSA; 5 mM MgCl2 with 10 mM EDTA; LightShift buffer, 2.5% glycerol, 50 mM KCl, 0.05% NP-40, 50 ng/uL poly(dI-dC); room temperature, 20 min. Conditions: tags: N-terminal GST (pGEX-4T1), kept; label: 5' biotin. In general terms: Mobility shift assays separate free from complexed probe on a gel.

The target of data set [16] is T16, PF13_0267 D1 (PF3D7_1350900, AP2 domain transcription factor AP2-O4, putative) (Plasmodium falciparum, UniProt A0A5K1K8Z4 400-521).
T16 sequence: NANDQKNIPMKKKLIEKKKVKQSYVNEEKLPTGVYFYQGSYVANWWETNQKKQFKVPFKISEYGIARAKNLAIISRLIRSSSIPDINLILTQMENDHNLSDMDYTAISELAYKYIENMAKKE
The data set is described as above. Conditions: tags: N-terminal GST (pGEX-4T1), kept; label: 5' biotin.

Data set [17] deals with T17, PFD0985w_D2 (AP2 domain 2) (Plasmodium falciparum, UniProt Q8I1N6 3268-3321).
T17 sequence: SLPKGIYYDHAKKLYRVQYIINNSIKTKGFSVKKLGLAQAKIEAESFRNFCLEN
Description: EMSA; poly(dI-dC); LightShift EMSA buffer, 2.5% glycerol, 5 mM MgCl2, 10 mM EDTA, 50 mM KCl, 0.05% NP-40, 50 ng/uL poly(dI-dC), 10 fmol biotin probe, 50 or 250x competitor, room temperature 20 min. Conditions: protein: recombinant; tags: N-terminal GST (pGEX-4T1); label: 5' biotin (probe); blunt.

Data set [18] addresses T17, PFD0985w_D2 (AP2 domain 2). The data set can be described thus: EMSA; poly(dI-dC); bound equally well as primary motif; LightShift EMSA buffer, 2.5% glycerol, 5 mM MgCl2, 10 mM EDTA, 50 mM KCl, 0.05% NP-40, 50 ng/uL poly(dI-dC), 10 fmol biotin probe, 50 or 250x competitor, room temperature 20 min. Conditions: protein: recombinant; tags: N-terminal GST (pGEX-4T1); label: 5' biotin (probe); blunt.

The target in data set [19] is T18, PF13_0235 D1ext (PF3D7_1342900, AP2 domain transcription factor, putative) (Plasmodium falciparum, UniProt C0H5G5 2339-2440).
T18 sequence: T5 sequence
Description: EMSA; 5 mM MgCl2 with 10 mM EDTA; LightShift buffer, 2.5% glycerol, 50 mM KCl, 0.05% NP-40, 50 ng/uL poly(dI-dC); room temperature, 20 min. The note with it: tags: N-terminal GST (pGEX-4T1), kept; label: 5' biotin.

Positions count from the first letter of the chain named.

For the molecule “GTGTGTG (double strand) [PFD0985w_D1 primary motif]”, the binding signal in data set [1] was determined as 0.497.
“TGACATCA (double strand) [PFE0840c_D2 primary motif]” registered a binding signal in [2] of 0.472.
For the molecule “TCTTGCC (double strand) [PF10_0075_D2 primary motif]”, the binding signal in data set [3] worked out at 0.468.
Molecule “AGCATAC (double strand) [PF11_0091 primary motif]” returned a binding signal in data set [4] of 0.472.
Molecule “GCCCCGC (double strand) [PF13_0235_D1 primary motif]” gave a binding signal in [5] of 0.494.
“TAGAACAA (double strand) [PF11_0404_D1 primary motif]” came in with a binding signal in data set [6] of 0.485.
“TGCNACCA (double strand) [PF14_0079 primary motif]” yielded a binding signal in data set [7] of 0.487.
For “CACACACA (double strand) [MAL8P1.153 primary motif]”, the binding signal in data set [8] came to 0.477.
For “TTCTACA (double strand) [PFL1900w_D1 primary motif]”, the binding signal in [9] was determined as 0.46.
As to “TGCACACAC (double strand) [PF13_0026 primary motif]”, in data set [10], the binding signal is 0.495.
In data set [11], “AATTTCC (double strand) [PF07_0126_DLD primary motif]” returned a binding signal of 0.467.
The molecule “AWGGKMCC / GGKMCCWT [PF13_0235_D1 Secondary motif 1]” had a binding signal in [5] of more than 0.45.
Molecule “GTGCAC (double strand) [PFF0200c_DLD primary motif]” had a binding signal in [12] of 0.481.
The molecule “AGCTAGCT (double strand) [PF11_0442 primary motif]” yielded a binding signal in data set [13] of 0.478.
As for “TAGATCGA (double strand) [PF11_0404_D1 Secondary motif 1]”, the binding signal in data set [6] is more than 0.45.
For the molecule “WTAAGCC (double strand) [PFF0670w_D1 primary motif]”, the binding signal in data set [14] was determined as 0.465.

B1: PFL1900w_DLD-1 (motif rank) (dsDNA)
DNA 1: AATATTATAATAGTCGTAGCCATCAATTCTACAAAATGGTAATATAGATTTTCGTTTATATT
DNA 2: AATATAAACGAAAATCTATATTACCATTTTGTAGAATTGATGGCTACGACTATTATAATATT
As to B1, the binding result in [15] is listed as “binds”.

B2: PFL1900w_DLD-2 (motif rank) (dsDNA)
DNA 1: B1 DNA 1 with T28A, T30G, A34T, A35C
DNA 2: B1 DNA 2 with T28G, T29A, A33C, A35T
As for B2, the binding result in data set [15] is recorded as “binds”.

B3: pfc0975c (dsDNA)
DNA 1: TTATGATGATACATAAATTACTGATCTTTCTAGGTGCGCTGCTACCATTATCGTGAATAA
DNA 2: TTATTCACGATAATGGTAGCAGCGCACCTAGAAAGATCAGTAATTTATGTATCATCATAA
For the molecule B3, in data set [16], the binding result is given as “binds”.

B4: pfc0975c-MUT (dsDNA)
DNA 1: B3 DNA 1 with T31A, G33A
DNA 2: B3 DNA 2 with C28T, A30T
As to B4, the binding result in [16] was “no binding”.

B5: PFD0985w_D2-1° (dsDNA)
DNA 1: AATATTATAATAGTCGTAGCCATCAATGTGTAACACATGGTAATATAGATTTTCGTTTATATT
DNA 2: AATATAAACGAAAATCTATATTACCATGTGTTACACATTGATGGCTACGACTATTATAATATT
For the molecule B5, the binding result in [17] was “binds”.

B6: PFD0985w_D2-2° (dsDNA)
DNA 1: B5 DNA 1 with G28C, T29C, G30A, T31C, A33C, C34A, A35C
DNA 2: B5 DNA 2 with T29G, G30T, T31G, A33G, C34T, A35G, C36G
Take B6: the binding result in data set [18] is “binds”.

B7: hsp86-MUT3 (dsDNA)
DNA 1: TTTTAAAAAAAAAAAAAAAGTATAGCGGAAATATACCATTGGATATATATTTAGTATTCC
DNA 2: GGAATACTAAATATATATCCAATGGTATATTTCCGCTATACTTTTTTTTTTTTTTTAAAA
For the molecule B7, the binding result in data set [19] is given as “no binding”.

B8: hsp86 (dsDNA)
DNA 1: TTTTAAAAAAAAAAAAAAAGCCCCGCGGAAAGGGGCCATTGGATATATATTTAGTATTCC
DNA 2: GGAATACTAAATATATATCCAATGGCCCCTTTCCGCGGGGCTTTTTTTTTTTTTTTAAAA
As for B8, the binding result in data set [19] is “binds”.
